Paper PMC4872087 (Nucleic Acids Research, 2016)
Where “and” joins values, the source holds several entries; their conditions need not be identical. Identical values can stand only once. Blank lines part the entries; values can stand above or below the molecule they belong to. Ends that are not written are not given here. Me3 = trimethyl (trimethylated lysine)

Tests used:
[1] = biological target: Histone H3K4me3 (Homo sapiens) (UniProt P68431); assay: ITC; details: cited from earlier work
His-Spindlin1(49–262) [2] = biological target: T1, His-Spindlin1(49–262) (human, UniProt Q9Y657 49-262); assay: fluorescent thermal shift assay (FTSA); 0.1 mg/ml His-Spindlin1(49–262), 5x SYPRO Orange, dilution series of H3(1–12)K4me3; 100 mM Hepes pH 7.5, 150 mM NaCl; KD by regression of Tm against ligand concentration; details: both partners purified
T1 construct: Spindlin1, human, amino acids 49-262; Modified pET15b with a minimal, non-cleavable hexahistidine tag; also called recombinant Spindlin1; source: E. coli BL21(DE3) codon plus, purified (Talon beads, gel filtration on superdex S75)
T1 sequence (Q9Y657 49-262): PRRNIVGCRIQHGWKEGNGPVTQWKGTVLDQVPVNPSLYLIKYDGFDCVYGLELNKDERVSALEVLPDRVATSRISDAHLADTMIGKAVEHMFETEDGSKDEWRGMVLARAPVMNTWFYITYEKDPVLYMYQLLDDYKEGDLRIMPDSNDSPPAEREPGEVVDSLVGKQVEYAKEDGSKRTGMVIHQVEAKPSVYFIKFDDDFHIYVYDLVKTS

His-JMJD2C(874–988) [3] = biological target: T2, His-JMJD2C(874–988) (murine, UniProt Q8VCD7 874-988); assay: AlphaScreen or HTRF; AlphaLISA displacement assay with His-JMJD2C(874–988) and biotin-H3(1–23)K4me3 (methods: 300 nM and 25 nM; legend: 5 μM and 200 nM), dilution series of unlabeled H3(1–12)K4me3; beads 0.02 mg/ml; details: both partners purified
T2 construct: JMJD2C (lysine demethylase), murine, amino acids 874-988, double Tudor domain; Modified pET15b with a minimal, non-cleavable hexahistidine tag; also called JMJD2C-Td; JMJD2C-TD; source: E. coli BL21(DE3) codon plus, purified (Talon resin, gel filtration)
T2 sequence (looked up): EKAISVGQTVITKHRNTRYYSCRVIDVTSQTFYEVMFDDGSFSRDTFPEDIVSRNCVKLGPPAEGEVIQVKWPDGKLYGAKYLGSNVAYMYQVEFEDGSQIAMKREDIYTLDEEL

His-JMJD2C(874–988) [4] = biological target: T2, His-JMJD2C(874–988); assay: fluorescence polarisation; FP displacement assay: 10 μM His-JMJD2C(874–988), 15 nM FL-H3K4me3, dilution series of unlabeled H3(1–12)K4me3; details: both partners purified
His-Spindlin1(49–262) [5] = biological target: T1, His-Spindlin1(49–262); assay: AlphaScreen or HTRF; AlphaLISA displacement assay: 15 nM His-Spindlin1(49–262), 30 nM biotin-H3(1–23)K4me3, dilution series of unlabeled competitor; incubation 15, 30, 60 and 90 min (IC50 values in that order); 25 mM Hepes pH 7.5, 100 mM NaCl, 1 mg/ml BSA, 0.05% CHAPS; 25°C; details: both partners purified
His-Spindlin1(49–262) [6] = biological target: T1, His-Spindlin1(49–262); assay: fluorescence polarisation; FP displacement assay: 100 nM His-Spindlin1(49–262), 10 nM FL-H3K4me3, dilution series of unlabeled competitor; incubation 15, 30, 60 and 90 min (IC50 values in that order); 25°C; details: both partners purified
His-JMJD2C(874–988) [7] = biological target: T2, His-JMJD2C(874–988); assay: fluorescent thermal shift assay (FTSA); 0.4 mg/ml His-JMJD2C(874–988), 5x SYPRO Orange, dilution series of H3(1–12)K4me3; KD by regression of Tm against ligand concentration; details: both partners purified
[8] = biological target: T3, Spindlin1, expressed by HL-60 suspension cells (human (endogenous in HL-60), UniProt Q9Y657 1-262); assay: cellular thermal shift assay (CETSA) on cell lysate; HL-60 cell lysate treated with 500 μM H3(1–12)K4me3 or, as control, H3(1–21)K4me0 at 37°C for 60 min; heated 3 min at a temperature gradient; soluble Spindlin1 by Western blot; apparent Tagg; details: one partner purified
T3 construct: Spindlin1, endogenous in HL-60 cells, detected by Western blot with an anti-Spindlin1 antibody; also called Spindlin1 (CETSA); source: endogenous, HL-60 cell lysate
T3 sequence (Q9Y657 whole entry): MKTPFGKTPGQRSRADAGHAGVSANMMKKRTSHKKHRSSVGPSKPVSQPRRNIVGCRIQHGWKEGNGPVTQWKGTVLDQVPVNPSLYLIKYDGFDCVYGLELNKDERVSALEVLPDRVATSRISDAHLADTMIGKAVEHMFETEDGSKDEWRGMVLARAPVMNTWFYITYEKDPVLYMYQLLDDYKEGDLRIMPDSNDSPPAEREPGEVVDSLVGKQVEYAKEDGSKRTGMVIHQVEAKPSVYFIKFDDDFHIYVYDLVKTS

His-JMJD2C(874–988) [9] = biological target: T2, His-JMJD2C(874–988); assay: fluorescence polarisation; KD determination of the binding of FL-H3K4me3 to JMJD2C-Td; same optimization route as for Spindlin1; details: both partners purified
His-Spindlin1(49–262) [10] = biological target: T1, His-Spindlin1(49–262); assay: fluorescence polarisation; His-Spindlin1(49–262) 0.06 to 750 nM titrated against 10 nM FL-H3K4me3; 60 min at 25°C; corrected for unspecific binding with 10 μM unlabeled H3(1–12)K4me3; one-site binding fit; 25 mM Hepes pH 7.5, 100 mM NaCl, 1 mg/ml BSA, 0.05% CHAPS; details: both partners purified

Molecule: Spindlin1 (from UniProt Q9Y657)
Kd [1]: 250 nM

Kd (His-Spindlin1(49–262) [2]): 380 nM
IC50 (His-JMJD2C(874–988) [3]): 4500 ± 200 nM
IC50 (His-JMJD2C(874–988) [4]): 19100 ± 2100 nM
IC50 (His-Spindlin1(49–262) [5]): 118 nM (3×) and 116 nM
IC50 (His-Spindlin1(49–262) [6]): 180 nM and 232 nM and 202 nM and 201 nM
Kd (His-JMJD2C(874–988) [7]): 12500 nM and 13300 nM
B1: H3(1–12)K4me3 (peptide)
peptide: ARTK(Me3)QTARKSTG
notes: histone H3, amino acids 1-12; Free N-terminus (H2N-) and free C-terminus (-COOH) as printed; also called unlabeled H3K4me3 peptide; unlabeled H3(1–12)K4me3; source: synthetic peptide, custom synthesized by Peptide Specialty Laboratories GmbH
ΔTagg (against lysate treated with H3(1–21)K4me0) [8]: 5.9 °C

Kd (His-JMJD2C(874–988) [9]): 14500 ± 1900 nM
Kd (His-Spindlin1(49–262) [10]): 31 nM
B2: FL-H3K4me3 (peptide)
peptide: ARTKQTARKSTGGK
modifications: trimethylated lysine at position 4; mixed isomers of 5-(and-6)-carboxyfluorescein coupled to K14 side chain
notes: histone H3, N-terminal tail; also called fluorescent probe; fluorescein labeled peptide derived from histone H3; source: synthetic peptide, custom synthesized by Peptide Specialty Laboratories GmbH
